The text below walks through data of patent publication US20260176319A1 (KALLYOPE, published 2026).

B1: Peptide 16 (peptide)
peptide: Palmitoyl-[d(γGlu)][AEEA][AEEA]GEHWAV[dA]HL[Nle]-NH2
SMILES: CCCCCCCCCCCCCCCC(=O)N[C@H](CCC(=O)NCCOCCOCC(=O)NCCOCCOCC(=O)NCC(=O)N[C@@H](CCC(=O)O)C(=O)N[C@@H](Cc1c[nH]cn1)C(=O)N[C@@H](Cc1c[nH]c2ccccc12)C(=O)N[C@@H](C)C(=O)N[C@H](C(=O)N[C@H](C)C(=O)N[C@@H](Cc1c[nH]cn1)C(=O)N[C@@H](CC(C)C)C(=O)N[C@@H](CCCC)C(N)=O)C(C)C)C(=O)O
B2: Peptide 21 (peptide)
peptide: Palmitoyl-[d(γGlu)]GNHWAV[Aib]HL[Nle]-NH2
SMILES: CCCCCCCCCCCCCCCC(=O)N[C@H](CCC(=O)NCC(=O)N[C@@H](CC(N)=O)C(=O)N[C@@H](Cc1c[nH]cn1)C(=O)N[C@@H](Cc1c[nH]c2ccccc12)C(=O)N[C@@H](C)C(=O)N[C@H](C(=O)NC(C)(C)C(=O)N[C@@H](Cc1c[nH]cn1)C(=O)N[C@@H](CC(C)C)C(=O)N[C@@H](CCCC)C(N)=O)C(C)C)C(=O)O
B3: Peptide 278 (peptide)
peptide: {C20 diacid}-[γGlu][γGlu][AEEA][AEEA]GDH[Trp(7-Me)]AV[BABA][NMeH]L[Nle]-NH2
B4: Peptide 20 (peptide)
peptide: Palmitoyl-[d(γGlu)][AEEA][AEEA]GNH[Trp(7-Me)][Aib]V[dA][3Pal]L[Nle][Sar]-NH2
SMILES: CCCCCCCCCCCCCCCC(=O)N[C@H](CCC(=O)NCCOCCOCC(=O)NCCOCCOCC(=O)NCC(=O)N[C@@H](CC(N)=O)C(=O)N[C@@H](Cc1c[nH]cn1)C(=O)N[C@@H](Cc1c[nH]c2c(C)cccc12)C(=O)NC(C)(C)C(=O)N[C@H](C(=O)N[C@H](C)C(=O)N[C@@H](Cc1cccnc1)C(=O)N[C@@H](CC(C)C)C(=O)N[C@@H](CCCC)C(=O)N(C)CC(N)=O)C(C)C)C(=O)O
B5: Peptide 276 (peptide)
peptide: {C20 diacid}-[γGlu][AEEA][AEEA]GQHWAV[βAla]HL[Met(O)]-NH2
SMILES: CC(C)C[C@H](NC(=O)[C@H](Cc1c[nH]cn1)NC(=O)CCNC(=O)[C@@H](NC(=O)[C@H](C)NC(=O)[C@H](Cc1c[nH]c2ccccc12)NC(=O)[C@H](Cc1c[nH]cn1)NC(=O)[C@H](CCC(N)=O)NC(=O)CNC(=O)COCCOCCNC(=O)COCCOCCNC(=O)CC[C@H](NC(=O)CCCCCCCCCCCCCCCCCCC(=O)O)C(=O)O)C(C)C)C(=O)N[C@@H](CCS(C)=O)C(N)=O
B6: Peptide 17 (peptide)
peptide: Palmitoyl-[d(γGlu)][AEEA][AEEA]GNHWAV[dA][3Pal]L[Nle]-NH2
SMILES: CCCCCCCCCCCCCCCC(=O)N[C@H](CCC(=O)NCCOCCOCC(=O)NCCOCCOCC(=O)NCC(=O)N[C@@H](CC(N)=O)C(=O)N[C@@H](Cc1c[nH]cn1)C(=O)N[C@@H](Cc1c[nH]c2ccccc12)C(=O)N[C@@H](C)C(=O)N[C@H](C(=O)N[C@H](C)C(=O)N[C@@H](Cc1cccnc1)C(=O)N[C@@H](CC(C)C)C(=O)N[C@@H](CCCC)C(N)=O)C(C)C)C(=O)O
B7: Peptide 268 (peptide)
peptide: {C20 diacid}-[γGlu][AEEA][AEEA]PQHWAV[βAla]HL[Nle]-NH2
SMILES: CCCC[C@H](NC(=O)[C@H](CC(C)C)NC(=O)[C@H](Cc1c[nH]cn1)NC(=O)CCNC(=O)[C@@H](NC(=O)[C@H](C)NC(=O)[C@H](Cc1c[nH]c2ccccc12)NC(=O)[C@H](Cc1c[nH]cn1)NC(=O)[C@H](CCC(N)=O)NC(=O)[C@@H]1CCCN1C(=O)COCCOCCNC(=O)COCCOCCNC(=O)CC[C@H](NC(=O)CCCCCCCCCCCCCCCCCCC(=O)O)C(=O)O)C(C)C)C(N)=O
B8: Peptide 269 (peptide)
peptide: {C20 diacid}-[γGlu][AEEA][AEEA][Hyp]QHWAV[βAla]HL[Nle]-NH2
SMILES: CCCC[C@H](NC(=O)[C@H](CC(C)C)NC(=O)[C@H](Cc1c[nH]cn1)NC(=O)CCNC(=O)[C@@H](NC(=O)[C@H](C)NC(=O)[C@H](Cc1c[nH]c2ccccc12)NC(=O)[C@H](Cc1c[nH]cn1)NC(=O)[C@H](CCC(N)=O)NC(=O)[C@@H]1C[C@@H](O)CN1C(=O)COCCOCCNC(=O)COCCOCCNC(=O)CC[C@H](NC(=O)CCCCCCCCCCCCCCCCCCC(=O)O)C(=O)O)C(C)C)C(N)=O
B9: Peptide 1 (peptide)
peptide: Palmitoyl-[d(γGlu)][AEEA][AEEA]GNHWAV[Aib]HL[Nle]-NH2
SMILES: CCCCCCCCCCCCCCCC(=O)N[C@H](CCC(=O)NCCOCCOCC(=O)NCCOCCOCC(=O)NCC(=O)N[C@@H](CC(N)=O)C(=O)N[C@@H](Cc1c[nH]cn1)C(=O)N[C@@H](Cc1c[nH]c2ccccc12)C(=O)N[C@@H](C)C(=O)N[C@H](C(=O)NC(C)(C)C(=O)N[C@@H](Cc1c[nH]cn1)C(=O)N[C@@H](CC(C)C)C(=O)N[C@@H](CCCC)C(N)=O)C(C)C)C(=O)O
B10: Peptide 267 (peptide)
peptide: {C20 diacid}-[γGlu][AEEA][AEEA]GQHWAV[βAla][NMeH]L[Nle]-NH2
SMILES: CCCC[C@H](NC(=O)[C@H](CC(C)C)NC(=O)[C@H](Cc1c[nH]cn1)N(C)C(=O)CCNC(=O)[C@@H](NC(=O)[C@H](C)NC(=O)[C@H](Cc1c[nH]c2ccccc12)NC(=O)[C@H](Cc1c[nH]cn1)NC(=O)[C@H](CCC(N)=O)NC(=O)CNC(=O)COCCOCCNC(=O)COCCOCCNC(=O)CC[C@H](NC(=O)CCCCCCCCCCCCCCCCCCC(=O)O)C(=O)O)C(C)C)C(N)=O
B11: Peptide 271 (peptide)
peptide: {C20 diacid}-[γGlu][γGlu][AEEA][AEEA]GQHWAV[ACPC]HL[Nle]-NH2
modifications: reading uncertain
B12: Peptide 266 (peptide)
peptide: {C20 diacid}-[γGlu][AEEA][AEEA]GEGEHWAV[βAla]HL[Nle]-NH2
SMILES: CCCC[C@H](NC(=O)[C@H](CC(C)C)NC(=O)[C@H](Cc1c[nH]cn1)NC(=O)CCNC(=O)[C@@H](NC(=O)[C@H](C)NC(=O)[C@H](Cc1c[nH]c2ccccc12)NC(=O)[C@H](Cc1c[nH]cn1)NC(=O)[C@H](CCC(=O)O)NC(=O)CNC(=O)[C@H](CCC(=O)O)NC(=O)CNC(=O)COCCOCCNC(=O)COCCOCCNC(=O)CC[C@H](NC(=O)CCCCCCCCCCCCCCCCCCC(=O)O)C(=O)O)C(C)C)C(N)=O
B13: Peptide 273 (peptide)
peptide: {C20 diacid}-[γGlu]E[AEEA][AEEA]GQHWAV[ACBA]HL[Nle]-NH2
modifications: reading uncertain
B14: Peptide 272 (peptide)
peptide: {C20 diacid}-[γGlu][γGlu][AEEA][AEEA]GQHWAV[ACPA]HL[Nle]-NH2
modifications: reading uncertain
B15: Peptide 277 (peptide)
peptide: {C20 diacid}-[γGlu][γGlu][AEEA][AEEA]SEH[Trp(7-Me)]AV[BABA][NMeH]L[Nle]-NH2
B16: Peptide 19 (peptide)
peptide: Palmitoyl-[d(γGlu)][AEEA][AEEA]GEH[Trp(7-Me)][Aib]V[dA][3Pal]L[Nle][Sar]-NH2
SMILES: CCCCCCCCCCCCCCCC(=O)N[C@H](CCC(=O)NCCOCCOCC(=O)NCCOCCOCC(=O)NCC(=O)N[C@@H](CCC(=O)O)C(=O)N[C@@H](Cc1c[nH]cn1)C(=O)N[C@@H](Cc1c[nH]c2c(C)cccc12)C(=O)NC(C)(C)C(=O)N[C@H](C(=O)N[C@H](C)C(=O)N[C@@H](Cc1cccnc1)C(=O)N[C@@H](CC(C)C)C(=O)N[C@@H](CCCC)C(=O)N(C)CC(N)=O)C(C)C)C(=O)O
B17: Peptide 275 (peptide)
peptide: {C20 diacid}-[γGlu][γGlu][PEG5′]GEH[Trp(7-Me)]AV[BABA]HL[Nle]-NH2
B18: Peptide 270 (peptide)
peptide: {C20 diacid}-[γGlu][γGlu][AEEA][AEEA]GQH[Trp(7-Me)]AV[BABA][NMeH]L[Nle]-NH2
B19: Peptide 18 (peptide)
peptide: Palmitoyl-[d(γGlu)][AEEA][AEEA]GE[3Pal][Trp(7-Me)][Aib]V[dA][3Pal]L[Nle][Sar]-NH2
SMILES: CCCCCCCCCCCCCCCC(=O)N[C@H](CCC(=O)NCCOCCOCC(=O)NCCOCCOCC(=O)NCC(=O)N[C@@H](CCC(=O)O)C(=O)N[C@@H](Cc1cccnc1)C(=O)N[C@@H](Cc1c[nH]c2c(C)cccc12)C(=O)NC(C)(C)C(=O)N[C@H](C(=O)N[C@H](C)C(=O)N[C@@H](Cc1cccnc1)C(=O)N[C@@H](CC(C)C)C(=O)N[C@@H](CCCC)C(=O)N(C)CC(N)=O)C(C)C)C(=O)O
B20: Peptide 274 (peptide)
peptide: {C20 diacid}-[γGlu][γGlu][AEEA][AEEA]GNH[αMeW]AV[βAla]HL[Nle]-NH2
SMILES: CCCC[C@H](NC(=O)[C@H](CC(C)C)NC(=O)[C@H](Cc1c[nH]cn1)NC(=O)CCNC(=O)[C@@H](NC(=O)[C@H](C)NC(=O)[C@](C)(Cc1c[nH]c2ccccc12)NC(=O)[C@H](Cc1c[nH]cn1)NC(=O)[C@H](CC(N)=O)NC(=O)CNC(=O)COCCOCCNC(=O)COCCOCCNC(=O)CC[C@H](NC(=O)CC[C@H](NC(=O)CCCCCCCCCCCCCCCCCCC(=O)O)C(=O)O)C(=O)O)C(C)C)C(N)=O

Starred links: 1 amine or outer side, 2 acyl side, 3 side chain; linkers in the order of their positions; H or OH if unused. Non-standard residues stand in square brackets, D forms with d. Primed or numbered codes have the meaning given here. *: point of attachment. Trp(7-Me) = Cc1cccc2c(C[C@H](N)C(=O)O)c[nH]c12; C20 diacid = O=C(O)CCCCCCCCCCCCCCCCCCC(=O)*; d(γGlu) = O=C(O)[C@@H](CCC(=O)[*:2])N[*:1]; αMeW = C[C@](N)(Cc1c[nH]c2ccccc12)C(=O)O; γGlu = O=C(O)[C@H](CCC(=O)[*:2])N[*:1]; NMeH = CN[C@@H](Cc1c[nH]cn1)C(=O)O; Palmitoyl = CCCCCCCCCCCCCCCC(=O)*; Hyp = O=C(O)[C@@H]1C[C@@H](O)CN1; 3Pal = N[C@@H](Cc1cccnc1)C(=O)O; Met(O) = CS(=O)CC[C@H](N)C(=O)O; Nle = CCCC[C@H](N)C(=O)O; PEG5′ = not defined here; ACBA = not defined here; ACPA = not defined here; ACPC = not defined here; AEEA = NCCOCCOCC(=O)O; Aib = CC(C)(N)C(=O)O; βAla = NCCC(=O)O; Sar = CNCC(=O)O

human GRP receptor, sequence (P30550 whole entry): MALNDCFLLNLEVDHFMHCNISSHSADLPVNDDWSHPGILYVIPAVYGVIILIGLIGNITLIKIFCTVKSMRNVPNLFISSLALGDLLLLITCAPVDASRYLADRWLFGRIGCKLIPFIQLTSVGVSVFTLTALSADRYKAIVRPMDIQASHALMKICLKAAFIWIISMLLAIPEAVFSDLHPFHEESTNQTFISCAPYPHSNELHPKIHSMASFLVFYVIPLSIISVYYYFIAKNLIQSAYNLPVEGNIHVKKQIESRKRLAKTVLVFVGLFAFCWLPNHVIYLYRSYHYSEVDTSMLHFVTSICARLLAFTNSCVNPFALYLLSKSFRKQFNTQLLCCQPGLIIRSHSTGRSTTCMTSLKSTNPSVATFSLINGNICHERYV

The assay addresses human GRP receptor (human, UniProt P30550 1-384). The assay can be described thus: cell-based or functional assay.
On to B1, for which the “hIP1 GRPR EC50” value came out at 5.8 nM. For B2 the value was 120 nM; for B3, 10.8 nM; for B4, over 1000 nM. For B5 the value was 63.8 nM; for B6, 3 nM. For B7 the value was 4.3 nM. B8: the “hIP1 GRPR EC50” value came to 2.4 nM. For B9 the value was 6.9 nM; for B10, 7.4 nM; for B11, 10.2 nM. For B12 the value was 11 nM; for B13, 12.3 nM. For B14 the value was 6 nM. As for B15, the “hIP1 GRPR EC50” value came to 13.1 nM. For B16 the value was over 1000 nM. Regarding B17, the “hIP1 GRPR EC50” value was 12.3 nM. For B18 the value was 3.8 nM; for B19, about 1000 nM. Consider B20, for which the “hIP1 GRPR EC50” value turned out to be 4.9 nM.
